From patent publication EP4659811A1 (Université de Strasbourg, dated 2025) come the findings set out here.

For experiment [1], the target named is VP1 capsid protein on BKV pseudovirions of genotype IVc2 (A-66H; AB369093) (BK virus genotype IVc2 (A-66H)). Nature of the experiment: cell-based or functional assay.
The target in experiment [2] is VP1 capsid protein on BKV pseudovirions of genotype Ia (BK-D; JF894228) (BK virus genotype Ia (BK-D)). Kind of experiment: cell-based or functional assay.
Experiment [3] has as its target VP1 capsid protein on BKV pseudovirions of genotype II (GBR-12; AB263920) (BK virus genotype II (GBR-12)). Kind of experiment: cell-based or functional assay.
In experiment [4] the target is T1, VP1 pentamer of BKV genotype II (recombinant) (BK virus genotype II, UniProt P14996 30-300).
T1 construct: also called GII; VP1 geno II pentamer; not shown: N-terminal His-tag of pESPRIT002; C-terminal biotin acceptor peptide (BAP) of pESPRIT002
Kind of experiment: ELISA, coated VP1 pentamer. (In an ELISA, binding on a coated surface is turned into a signal by an enzyme label.)

For experiment [5], the target named is T2, VP1 pentamer of BKV genotype IV (recombinant) (BK virus genotype IV, UniProt P14996 30-300).
T2 construct: also called GIV; VP1 BKV subtype IV; not shown: N-terminal His-tag of pESPRIT002; C-terminal biotin acceptor peptide (BAP) of pESPRIT002
Nature of the experiment: ELISA, coated VP1 pentamer.

B1: antibody F2P7 (antibody, V domains shown)
VH: EVQLVQSGGGLVQPGGSLKLSCAASGFSSSGSEIHWVRQASGRGLEWIGRVRSTANRHAPGYTESVRGTFTVSRDESKNTASLELKSLKIEDTAVYYCTGVRGVISRYFAMDVWGQGTTVTVSS
VL: QSALTQPASVSGSPGQSITISCTGTNSDLGSYNYVSWYRLHPGKDPHLIIYDVTHRPSGVSSRFSGSKSGKTASLTISGLQSEDEAEYFCCSYASVGSPIFGGGTKVTVL
The EC50 is the concentration giving half of the maximal effect. For the molecule B1, the “Neutralization PSV IC50” value in experiment [1], in experiment [2] and in experiment [3] was over 50 µg/mL each time. The EC50 in experiment [4] is 10 µg/mL; in experiment [5], 4 µg/mL.

B2: antibody D3P7 (antibody, V domains shown)
VH: QVQLVQSGSELKKPGASVRVSCKASAYTFTNSAINWVRQAPGQGLEWTGWINTNTGNPAYAQGFRGRFVFSLDTSVSEAYLQITNLKAEDTATYYCAVPYNFGGDHNSFHFFGMDVWGQGTTVTVSS
VL: QSALTQPASVSGSPGQSITISCTGSSSDVGTYNFVSWYQQQPAKAPKVMIYEGTKRPSGISDRFSGSKSGNTASLTISGLQAEDEADYYCSSYAGGNAFVFGTGTRVSVL
Consider B2, for which the “Neutralization PSV IC50” value in experiment [1], in experiment [2] and in experiment [3] was over 50 µg/mL throughout. Also, the figures for the EC50 in experiment [4] and in experiment [5] were 0.15 µg/mL and 0.3 µg/mL, respectively.

B3: antibody C11P7 (antibody, V domains shown)
VH: EVQLVESGGGLVQPGGSLKLSCAASGFSLSNSEVHWVRQASGKGLEWIGRVRSRANRHATGYTESVNGRFTVSRDDSKNTASLQLESLKIEDTAVYYCTGVRGVISRYFAMDVWGQGTTVTVSS
VL: QSALTQPASVSGSPGQSITISCTGTSSDVGAYNYVSWYRLRPGKDPHLIIYDVSHRPAGVSNRFSGSKSGNTASLTISGLQAEDEDEYYCCSYAHRGTPLFGGGTKLTVL
In the case of B3, the “Neutralization PSV IC50” value in experiment [1], in experiment [2] and in experiment [3] was over 50 µg/mL each time. Moreover, the EC50 in experiment [4] is 6 µg/mL; in experiment [5] it was 4 µg/mL.
